Assay results as given in patent US20220125947A1 (published 2022).

B1: VG9B114 (antibody, human IgG1, kappa, V domains shown)
VH: EVQLVESGGDLVQPGGSLRLSCAASGFTFSRYDMHWVRQATGKGLEWVSAIGSAGDTYYPGSVKGRFTISRENAKNSLYLQMNSLRAGDTAVYYCARGKWELRDAFDIWGQGTMVTVSS
VL: DIVMTQSPSFLSASVGDRVTITCRASQGIHSYLAWYQQKPGKAPKLLIYVASTLQSGVPSRFSGSRSGTEFTLTISSLQPEDFATYYCQQLNSYPYTFGQGTKLEIKR
notes: IgG1, kappa
B2: VG9B65 (antibody, human IgG1, kappa, V domains shown)
VH: QVQLVQSGAEVKKPGSSVKVSCKASGGTFNIYAINWVRQAPGQGLEWMGGIIPFFGTANYAQKFQDRVTITADKSTNTAYMELSSLRSEDTAVFYCARGGDSGYDWGFDYWGQGTLVTVSS
VL: DIVMTQTPLSSPVTLGQPASISCRSSQSLVHSDGNTYLSWLQQRPGQPPRLLIYQISNRFSGVPDRFSGSGAGTDFTLNISRVEADDVGVYYCMQATQFPLTFGGGTKVEIKR
notes: IgG1, kappa
B3: VG9B147 (antibody, human IgG1, lambda, V domains shown)
VH: QVQLQESGPGLVNPSETLSLTCTVSGGSISGYFWNWIRQPPGKGLEWIGYIFYSGSTNYNPSLKSRVTISVDTSKNQFSLKLSSVTAADTAIYYCAREGKWELRSTFDIWGQGTMVTVSS
VL: SSELTQDPAVSVALGQTVRITCQGDSLRSYYATWYQQKPGQAPILVIYGENNRPSGIPDRFSGSRSGNTASLTITGAQAEDEADYYCNSRDTGDHHLVFGGGTKLTVLG
notes: IgG1, lambda
B4: VG9B177 (antibody, human IgG1, lambda, V domains shown)
VH: QVQLQESGPGLVKPSETLSLTCTVSGGSINNYFWSWIRQPPGKGLEWIGYIFYSGSTNYNPSLKSRVTISIDTSKNQFSLKVNSVTAADTAVYYCARVGKWELRTAFDIWGQGTMVTVSS
VL: QSALTQPASVSGSPGQSITISCTGTSSDVADYNYVSWYQQHPGKAPKLMIYEVSNRPSGVSNRFSGSKSGNTASLTISGLQAEDEADYYCCSYTSSFTVVFGGGTKVTVLG
notes: IgG1, lambda
B5: VG9B87 (antibody, human IgG1, kappa, V domains shown)
VH: QVQLVESGAEVKKPGASVKVSCKASGYTFTSEYIHWVRQAPGQGLEWMGIINPSGGSTSYAQRFQGRVTMTRDTSTSTVYMEVNSLRSEDTAVYYCARERGYSYGSFDYWGQGTLVTVSS
VL: EIVLTQSPSFLSASAGDRVTITCRASQGISSYLAWYQQKPEKAPKLLIYAASTLQSGVPSRFSGSGSGTEFTLTISSLQPEDFATYYCQQFNSYSLTFGGGTKLEIKR
notes: IgG1, kappa
B6: VG9B186 (antibody, human IgG1, lambda, V domains shown)
VH: QVTLRESGPVLVKPTETLTLTCTVSGFSLTNIRMSVSWIRQPPGEALEWLAHIFSNDEKSYNSSLKSRLTISRDTSKSQVVLTLTNVDPVDTATYYCARMRLPYGMDVWGQGTMVTVSS
VL: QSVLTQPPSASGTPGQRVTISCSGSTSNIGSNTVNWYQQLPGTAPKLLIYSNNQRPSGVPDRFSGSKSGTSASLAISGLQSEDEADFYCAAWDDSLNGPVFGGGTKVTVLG
notes: IgG1, lambda
B7: VG9B208 (antibody, human IgG1, lambda, V domains shown)
VH: QVQLQESGPGLVKPSETLSLTCTVSGGSISGYYWSWIRQPPGKGLELIGYIFYSGSINYNPSLKNRVTISLDTSKNQFSLKLTSVTAADTAVYYCARVGKWELRSSFDIWGQGTMVTVSS
VL: QSVLTQPPSVSAAPGQKVTISCSGSTSNIGNNDVSWYQQLPGTAPKLLIYDNNKRPSGIPDRFSGSKSGTSATLGITGLQTGDEADYYCGTWDSSLSVWVFGGGTKLTVLG
notes: IgG1, lambda
B8: VG9B372 (antibody, human IgG1, kappa, V domains shown)
VH: QVQLQESGPGLVKPSQTLSLTCTVSGGSISNGGFYWSWIRQHPGKGLEWLGYINYSGSTYYNPSLESRGTISLDTSKNQFSLKLRSVTAADTAVYYCARDRNYEWNFDLWGRGTLVTVSS
VL: EIVMTQSPATLSLSPGEGATLSCRASQSVSSYLAWYQQKPGQAPRLLVYDASNRATGIPARFSGSGSGTAFTLTITSLEPEDFVVYYCQQRSNWPLTFGGGTKLEIKR
notes: IgG1, kappa
B9: VG9B159 (antibody, human IgG1, lambda, V domains shown)
VH: EVQLVQSGPGLVKPSETLSLTCTVSGGSISSYYWSWIRQPAGKGLEWIGRFYTGGRNNYNPSFKSRVTMSVDTSQNQFSLKLSSVTAADTAVYYCARDMEYYYDRSGYSYWYFDLWGRGTTVTVSS
VL: SYELMQPPSVSVAPGQTARITCGGNNIGSKSVHWYQQKPGQAPVLVVYDDSDRPSGIPERFSGSNSGNTATLTISRVEAGDEADYYCQVWDSSSDHVVFGGGTKLTVLG
notes: also called antibody #73
B10: VG9B382 (antibody, human IgG1, lambda, V domains shown)
VH: QVQLQESGPGLVKPSETLSLTCTVSGDSISGYYWNYIRQPAGKGLDWIGRIFTTGNTNYNPSLKSRVTMSVDTSKNQFSLKLTSVTAADTAVYYCARERWDSSSSALYFDYWGQGTLVTVSS
VL: QSVLTQPPSVSGAPGQRVTISCTGSSSNIGADYDIKWYQQLPGTAPKLLIYGNSNRPSGVPDRFSGSKSGTSVSLAITGLQAEDEADYYCQSYDSSMSGYVVFGGGTKLTVLG
notes: also called antibody #68
B11: VG9B465 (antibody, human IgG1, lambda, V domains shown)
VH: QVQLQQSGPGLVKPSETLSLTCTVSGGSITSYYWNWIRQPAGKGLEWIGRIYTIGNTNYNPSLKSRVTMSIDTSKHQFSLKLSSVTGADTAVYYCAREGYYESDGSFFPGAFNIWGQGTMVTVSS
VL: SSELTQPASVSGSPGQSITISCTGTSNDVGSYNLVSWYQQHPGKAPKLMIYAGSKRPSGISNRFSGSKSGNTASLTISGLQAEDEADYYCCSYAGTTNVVFGGGTKVTVLG
notes: also called antibody #74
B12: VG9B86 (antibody, human IgG1, kappa, V domains shown)
VH: QVQLQESGPGLVKPSETLSLTCTVSGDSISSSYWSWIRQPAGKGLECIGRFYSSGSTSYNPSLKSRVTMAIDTSKNQFSLKLTSVTAADTAVYYCARYSGSYWYFDLWGRGTTVTVSS
VL: EIVLTQSPATLSLSPGERATLSCRASQSVSSYLAWYQQRPGQAPRLLIYDTSNRATGIPARFSGSGSGTDFTLTISSLAPEDFAVYYCQQRSDWLLTFGGGTKVEIKR
notes: also called antibody #71
B13: VG9B154 (antibody, human IgG1, lambda, V domains shown)
VH: QVQLQESGPGLVKPSETLSLTCTVSGGSISYYFWNWIRQPPGKGLEWIGYIYYSGSTNYNPSLKSRVTISLDTSKNQFSLKLSSVTAADTAVYYCAREGKWELRTTFDIWGQGTMVTVSS
VL: not shown
notes: also called antibody #72
B14: VG9B173 (antibody, human IgG1, lambda, V domains shown)
VH: QVQLQESGPGLVKPSETLSLTCTVSGGSINNYFWSWIRQPPGKGLEWIGYIYYSGSTNYNPSLKSRVTISVVTSMNQFSLKLSSVTAADTAVYYCAREGKWELRSAFDIWGQGTMVTVSS
VL: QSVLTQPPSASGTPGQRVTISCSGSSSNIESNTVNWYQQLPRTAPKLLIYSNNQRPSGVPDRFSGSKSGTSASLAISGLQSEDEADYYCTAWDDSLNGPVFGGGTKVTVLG
notes: also called antibody #77
B15: VG9B156 (antibody, human IgG1, lambda, V domains shown)
VH: QVQLQESGPGLMKPSETLSLTCTVSNGSISGYFWNWIRQPPGKGLEWIGYIFYSGSTNYNPSLKSRVTISVDTSKNLVSLKLNSVTAADTAVYFCAKLGKWELRTAFDIWGQGTMVTVSS
VL: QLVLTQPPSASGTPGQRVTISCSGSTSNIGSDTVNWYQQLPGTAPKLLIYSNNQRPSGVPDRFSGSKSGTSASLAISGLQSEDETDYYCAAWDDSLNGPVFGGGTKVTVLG
notes: also called antibody #69
B16: VG9B205 (antibody, human IgG1, lambda, V domains shown)
VH: QVQLVQSGPGLMKPSETLSLTCTVSNGSISGYFWNWIRQPPGKGLEWIGYIFYSGSTNYNPSLKSRVTISVDTSKNLVSLKLNSVTAADTAVYFCAKLGKWELRTAFDIWGQGTMVTVSS
VL: not shown
notes: also called antibody #70
B17: VG9B182 (antibody, human IgG1, lambda, V domains shown)
VH: QVQLVESGPGLVKPSETLSLTCTVSGDSINNHFWSWIRQPPGKGLEWIGFVFYNGNTNYNPSLKSRVTISIDTSKSQFSLKLTSVTAADTAVYYCARVGRWVLRTAFDIWGQGTMVTVSS
VL: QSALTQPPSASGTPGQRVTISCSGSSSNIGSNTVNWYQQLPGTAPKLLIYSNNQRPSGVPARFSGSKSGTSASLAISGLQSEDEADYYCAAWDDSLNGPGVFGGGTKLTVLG
notes: also called antibody #76
B18: VG9B194 (antibody, human IgG1, lambda, V domains shown)
VH: EVQLLESGAEVKKPGASVKVSCKASGYTFTGDYMHWVRQAPGQGLEWMGWINPNSGYTNNAEKFQGRVTMTRDTSISTAYMELSRLSSDDTAVYYCTRELDALDVWGQGTMVTVSS
VL: QSVLTQPPSASGSPGQSVTISCTGTSSDVGGYNYVSWYQQHPGKAPKLMIYEVSKRPSGVPDRFSGSKSGNTASLTVSGLQAEDEADYYCNSYAGSNNFEVFGGGTKVTVLG
notes: also called antibody #75

Biological target: T1, gamma-delta T cell receptor on human γδ T cells (human)
T1 construct: also called AG000003021 (γδ T cells)
Test: flow cytometry, dose-response binding at 37 C, human γδ T cells
Method: (§1) Binding of antibodies to human γδ T cells or SKW cell lines expressing Vγ9/Vδ2, Vγ9/Vδ2 or Vγ5/Vδ2 was carried out by flow cytometry. Briefly, the cells were centrifuged at 300×g for 5 minutes and the pellet was resuspended in 34 ml fresh media (in RPMI+10% FBS). 50 μL of the cells were then plated (44K cells/well) into assay plates. Samples were incubated for one hour at 37° C. in tissue culture (TC) incubator followed by wash steps by adding 100 μl FACS staining buffer. Secondary detention antibodies (A647 conjugated anti-human IgG Fc specific antibody (2 μg/mL) along with AF488 anti mouse CD3, clone OKT3 at 1 ug/mL) were added at 50 μL/well to appropriate wells according to the plate map. After incubating for 60 minutes at 37° C. in the TC incubator, cells were again washed as described above. This is followed by resuspension in 20 μL/well running buffer containing 1:1000 dilution of Sytox blue dead cell stain and the plates were run on iQue Screener.
(§2) Gating and data analysis: Human anti-human Vγ9 antibody (VG9B2 mAb at 10 nM) was used to mark the gating of positive population. All cells were first gated for singlets on SCS-A vs. SCS-H dot plot, live/dead followed by CD3 positive population, and this subset of CD3 positive population was gated for Vγ9 positive binding using positive control mAb. Cells were also assessed for cell binding of control mAbs by RL1 (A647) Geomeans from the live cell population. Advanced metrics were used and normalization metrics were chosen to calculate fold over background wells containing secondary antibody alone (designated as ‘background’ within ForeCyt settings).

Point of comparison: B2, “Max. Activity” value 1820 fold over background. Against it:
- B1 — higher, 1980 fold over background
- B3 — higher, 1890 fold over background
- B4 — higher, 2250 fold over background
- B5 — higher, 2330 fold over background
- B6 — higher, 2290 fold over background
- B7 — higher, 2310 fold over background
- B8 — higher, 2290 fold over background

Biological target: T2, γδ T cell receptor on human γδ T cells (human)
T2 construct: also called AG000003021 (γδ T cells)
Test: flow cytometry, dose-response (DRC) binding at 37°C on human γδ T cells
Method: as §1, §2

Point of comparison: B9, “Max. Activity” value 2510 fold over background. Against it:
- B10 — higher, 2780 fold over background
- B11 — lower, 2500 fold over background
- B12 — higher, 2670 fold over background
- B13 — higher, 2590 fold over background
- B14 — lower, 2360 fold over background
- B15 — higher, 2700 fold over background
- B16 — higher, 2690 fold over background
- B17 — lower, 2370 fold over background
- B18 — lower, 2470 fold over background
